Measured values taken from publication PMC10679996.

Molecular target: HSC70 (UniProt P11142)
Assay: anti-FLAG co-IP, Western blot
Settings: reference: wild type; sites T290

Substance: PD-L1 (from UniProt Q9NZQ7) T290A
- binding against the reference: weaker
